The source of these data is patent US20050010028A1 (KEIO UNIVERSITY, published 2005).

B1: Rhodamine green-labeled c-Fos (other, UniProt P01101 118-211, looked up)
chain: GRAQSIGRRGKVEQLSPEEEEKRRIRRERNKMAAAKCRNRRRELTDTLQAETDQLEDEKSALQTEIANLLKEKEKLEFILAAHRPACKIPDDLG
modifications: C-terminus joined through puromycin to a rhodamine green modifying agent that also carries biotin or iminobiotin (Modifying agent 22 or 23; which one in the FCCS sample is not stated)
notes: also called Rh-Fos; rhodamine green-modified c-fos; not shown: T7 tag at the N-terminus; C-terminal polyhistidine tag

One experiment addresses T1, Cy5-labeled c-Jun (mouse, UniProt P05627 216-318, C-terminus joined through puromycin to a Cy5 modifying agent that also carries biotin or iminobiotin (Modifying agents 24-26; Modifying agent 25 in FIGS. 14 and 15; the agent used in the FCCS sample …).
T1 construct: also called Cy5-Jun; Cy5-modified c-Jun; not shown: T7 tag at the N-terminus; C-terminal polyhistidine tag
The experiment in a line: fluorescence cross-correlation spectroscopy in solution, 10 nM each of the two labelled proteins and AP-1 double-stranded DNA. The method, then: (§1) Intermolecular interactions were analyzed by fluorescence cross-correlation spectroscopy using fluorescence-labeled c-Fos and c-Jun as well as AP-1 sequence double-stranded DNA. DNA and the modified proteins (at a final concentration of 10 nM each) were mixed. 10 μl of this sample was applied to an 8-well glass chamber (Nunc), and fluorescence cross-correlations were measured by using a fluorescence correlation spectrometer, ConfoCor2 (Car1 Zeiss). […] Based on the above, it was confirmed that proteins labeled with fluorescence according to the present invention could be used to detect protein interactions by using a fluorescence cross-correlation spectroscopy and further could be utilized for convenient and quick measurement of dissociation constant.

Experiment [1] has as its target T2, Fos modified with TAMRA-dC-puromycin (Modifying agent 19) (mouse, UniProt P01101 118-211, C-terminus joined to TAMRA-dC-puromycin (Modifying agent 19)).
T2 construct: also called C-terminal fluorescence-labeled Fos; Fos protein having 12 His tags
Description: protein microarray: STA-Fos on a biotin plate, labelled Fos in solution, fluorescence scan.

The target in experiment [2] is B1. The experiment in a line: fluorescence cross-correlation spectroscopy in solution, Cy5-Fos + Rh-Fos + AP-1 DNA. The method, then:
as §1

T1 sequence (P05627 216-318): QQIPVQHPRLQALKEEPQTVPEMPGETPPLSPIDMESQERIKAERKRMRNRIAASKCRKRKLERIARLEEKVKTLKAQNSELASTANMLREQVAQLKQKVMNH

Usually Kd stands for a measure of binding affinity in units of concentration. Higher therefore signals weaker binding. Take B1: in the experiment with Cy5-labeled c-Jun, the Kd was around 10 nM.

B2: streptavidin-fused Fos protein (other, UniProt P01101 118-211, looked up)
chain: GRAQSIGRRGKVEQLSPEEEEKRRIRRERNKMAAAKCRNRRRELTDTLQAETDQLEDEKSALQTEIANLLKEKEKLEFILAAHRPACKIPDDLG
notes: From plasmid pSP6-STA-Fos (pET20b backbone), spotted as translation solution on a biotin-coated slide; also called STA-Fos; STA-Fos(F); not shown: T7 tag at the N-terminus of streptavidin; streptavidin, gene amplified from the Streptomyces avidinii genome
As for B2, the binding result in experiment [1] is reported as “no binding”.

B3: Cy5-labeled c-Fos (other, UniProt P01101 118-211, looked up)
chain: GRAQSIGRRGKVEQLSPEEEEKRRIRRERNKMAAAKCRNRRRELTDTLQAETDQLEDEKSALQTEIANLLKEKEKLEFILAAHRPACKIPDDLG
modifications: C-terminus joined through puromycin to a Cy5 modifying agent that also carries biotin or iminobiotin (Modifying agents 24-26; Modifying agent 25 in FIGS. 14 and 15; the agent used in the FCCS sample is not stated)
notes: also called Cy5-Fos; not shown: T7 tag at the N-terminus; C-terminal polyhistidine tag
Regarding B3, the binding result in experiment [2] is “no binding (tested: 10 nM each)”.
